Experimental data: patent publication US20020058024A1 (YEDA RESEARCH AND DEVELOPMENT, published 2002)

T1: RAP (RIP-associated protein) (human, UniProt Q9Y3I1 1-522, limits assumed)
T1 construct: The clone first isolated in the two-hybrid screen was a partial clone of about 1.9 Kb; also called RAP protein; RAP-1 (clone of about 2.2 kB, CNCM I-2706)
T1 sequence: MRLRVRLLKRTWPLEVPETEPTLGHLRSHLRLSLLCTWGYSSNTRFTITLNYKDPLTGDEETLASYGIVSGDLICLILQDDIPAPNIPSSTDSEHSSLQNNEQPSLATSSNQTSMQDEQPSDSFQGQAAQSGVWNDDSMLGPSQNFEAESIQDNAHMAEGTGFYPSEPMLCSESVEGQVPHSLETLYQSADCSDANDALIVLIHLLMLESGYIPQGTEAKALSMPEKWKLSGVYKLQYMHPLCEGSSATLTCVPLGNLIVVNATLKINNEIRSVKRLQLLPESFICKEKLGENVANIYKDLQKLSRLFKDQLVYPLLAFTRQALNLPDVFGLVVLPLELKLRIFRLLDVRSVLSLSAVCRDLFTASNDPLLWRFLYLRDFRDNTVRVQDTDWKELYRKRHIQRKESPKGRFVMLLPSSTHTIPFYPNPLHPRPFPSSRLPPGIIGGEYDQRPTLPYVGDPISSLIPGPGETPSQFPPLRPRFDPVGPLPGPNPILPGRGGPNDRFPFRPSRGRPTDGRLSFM

B1: p75-R (receptor, UniProt P20333 287-461, looked up)
chain: VKKKPLCLQREAKVPHLPADKARGTQGPEQQHLLITAPSSSSSSLESSASALDRRAPTRNQPQAPGVEASGAGEARASTGSSDSSPGGHGTQVNVTCIVNVCSSSDHSSQCSSQASSTMGDTDSSPSESPKDEQVPFSKEECAFRSQLETPETLLGSTEEKPLPLGVPDAGMKPS
notes: also called p75 TNF-R; p75 tumor necrosis factor receptor
B2: MORT-1 (other, UniProt Q13158 1-208, looked up)
chain: MDPFLVLLHSVSSSLSSSELTELKFLCLGRVGKRKLERVQSGLDLFSMLLEQNDLEPGHTELLRELLASLRRHDLLRRVDDFEAGAAAGAAPGEEDLCAAFNVICDNVGKDWRRLARQLKVSDTKIDSIEDRYPRNLTERVRESLRIWKNTEKENATVAHLVGALRSCQMNLVADLVQEVQQARDLQNRSGAMSPMSWNSDASTSEAS
notes: also called FADD
B3: TRADD (other, UniProt Q15628 1-312, looked up)
chain: MAAGQNGHEEWVGSAYLFVESSLDKVVLSDAYAHPQQKVAVYRALQAALAESGGSPDVLQMLKIHRSDPQLIVQLRFCGRQPCGRFLRAYREGALRAALQRSLAAALAQHSVPLQLELRAGAERLDALLADEERCLSCILAQQPDRLRDEELAELEDALRNLKCGSGARGGDGEVASAPLQPPVPSLSEVKPPPPPPPAQTFLFQGQPVVNRPLSLKDQQTFARSVGLKWRKVGRSLQRGCRALRDPALDSLAYEYEREGLYEQAFQLLRRFVQAEGRRATLQRLVEALEENELTSLAEDLLGLTDPNGGLA
B4: p55-R (receptor, UniProt P19438 235-455, looked up)
chain: RYQRWKSKLYSIVCGKSTPEKEGELEGTTTKPLAPNPSFSPTPGFTPTLGFSPVPSSTFTSSSTYTPGDCPNFAAPRREVAPPYQGADPILATALASDPIPNPLQKWEDSAHKPQSLDTDDPATLYAVVENVPPLRWKEFVRRLGLSDHEIDRLELQNGRCLREAQYSMLATWRRRTPRREATLELLGRVLRDMDLLGCLEDIEEALCGPAALPPAPSLLR
notes: also called p55 TNF-R; p55 tumor necrosis factor receptor

These binders were tested against T1, RAP (RIP-associated protein) (assay: binding assay tests (method not named)).

Binding result, no binding:
B1
B2
B3
B4
